Measured values published in article PMC12278339 (2025).

Target: Gab2a 12mer peptide (Homo sapiens, UniProt Q9UQC2)
Assay: SPR

Gab2a 12mer peptide, sequence (Q9UQC2 whole entry): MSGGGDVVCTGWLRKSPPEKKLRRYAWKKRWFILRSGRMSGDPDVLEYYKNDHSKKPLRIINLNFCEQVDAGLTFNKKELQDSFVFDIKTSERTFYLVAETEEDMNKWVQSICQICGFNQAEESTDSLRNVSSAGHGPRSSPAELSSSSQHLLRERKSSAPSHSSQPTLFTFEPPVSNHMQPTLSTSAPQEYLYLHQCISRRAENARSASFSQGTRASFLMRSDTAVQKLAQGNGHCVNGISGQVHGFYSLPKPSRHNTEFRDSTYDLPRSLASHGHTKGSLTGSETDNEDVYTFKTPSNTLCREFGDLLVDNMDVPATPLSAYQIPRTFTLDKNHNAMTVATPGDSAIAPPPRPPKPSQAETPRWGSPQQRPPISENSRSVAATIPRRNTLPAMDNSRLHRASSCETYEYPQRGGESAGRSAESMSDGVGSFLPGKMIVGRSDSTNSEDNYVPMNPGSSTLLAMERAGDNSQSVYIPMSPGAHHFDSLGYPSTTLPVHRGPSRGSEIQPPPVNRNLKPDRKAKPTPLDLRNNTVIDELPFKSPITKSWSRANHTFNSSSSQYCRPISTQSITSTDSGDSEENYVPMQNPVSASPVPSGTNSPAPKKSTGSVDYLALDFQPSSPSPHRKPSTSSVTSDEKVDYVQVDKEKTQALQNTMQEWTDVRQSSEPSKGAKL

B1: Grb2 SH3C (protein)
chain: QQPTYVQALFDFDPQEDGELGFRRGDFIHVMDNSDPNWWKGACHGQTGMFPRNYVTPVNR
  Kd: 161 µM
